Blank lines part the entries; values can stand above or below the binder they belong to. cellulose membrane = peptide bound to a cellulose membrane through the C-terminus
How the values were obtained:
[1] = target: T1, 13-mer peptide, amino acids 61 to 73 of the HLA-DR β chain (DRB1*15011) (human); test: SPOT 13-mer peptide array on cellulose membrane, chemiluminescence
T1 peptide: Ac-WNSQKDILEQARA-{cellulose membrane}
Protocol: (§1) The epitope of each antibody was analyzed by Western blotting in accordance with a conventional technique. In simple terms, a cellulose or PVDF membrane was blocked with Block Ace (Yukijirushi), etc., each antibody was allowed to react therewith at 1 μg/mL as a primary antibody and at 0.5 μg/mL as a secondary antibody using […], the HRP-labeled anti-human antibody (e.g., DAKO) was allowed to react therewith, and the chemiluminescence was detected using a chemiluminescent reagent (e.g., ECL Western blotting detection reagent, Amersham Bioscience) and a chemiluminescence detector (e.g., LAS-1000, Fuji Film).
(§2) The subsequent reaction was carried out based on conventional Western blot analysis (see, for example, Reineke, U. et al., (2001), “Epitope mapping with synthetic peptides prepared by SPOT synthesis.” Antibody Engineering (Springer Lab Manual) Eds.: Kontermann/Dubel, 433459). In the analysis, LumilmagerTM (Boehringer-Mannheim) was used to represent the color intensity in each spot by numerical values.

SEQ ID NO 24 = target: T2, SEQ ID NO 24 (human); test: polymorphic 61-73 peptide spots, chemiluminescence
T2 peptide: Ac-WNSQKDFLEDRRA-{cellulose membrane}
Protocol: as §1
(§3) The subsequent reaction was carried out based on conventional Western blot analysis (see, for example, Reineke, U. et al., (2001), “Epitope mapping with synthetic peptides prepared by SPOT synthesis.” Antibody Engineering (Springer Lab Manual) Eds.: Kontermann/Dubel, 433459). In the analysis, LumilmagerTM (Boehringer-Mannheim) was used to represent the color intensity in each spot by numerical values. […]

SEQ ID NO 33 = target: T3, SEQ ID NO 33 (human); test: polymorphic 61-73 peptide spots, chemiluminescence
T3 peptide: Ac-WNSQKDILEQARA-{cellulose membrane}
Protocol: as §1, §3

SEQ ID NO 36 = target: T4, SEQ ID NO 36 (human); test: polymorphic 61-73 peptide spots, chemiluminescence
T4 peptide: Ac-WNSQKDLLEQKRG-{cellulose membrane}
Protocol: as §1, §3

SEQ ID NO 38 = target: T5, SEQ ID NO 38 (human); test: polymorphic 61-73 peptide spots, chemiluminescence
T5 peptide: Ac-WNSQKDLLERRRA-{cellulose membrane}
Protocol: as §1, §3

SEQ ID NO 28 = target: T6, SEQ ID NO 28 (human); test: polymorphic 61-73 peptide spots, chemiluminescence
T6 peptide: Ac-WNSQKDILEDERA-{cellulose membrane}
Protocol: as §1, §3

SEQ ID NO 39 = target: T7, SEQ ID NO 39 (human); test: polymorphic 61-73 peptide spots, chemiluminescence
T7 peptide: Ac-WNSQKDLLEDERA-{cellulose membrane}
Protocol: as §1, §3

SEQ ID NO 30 = target: T8, SEQ ID NO 30 (human); test: polymorphic 61-73 peptide spots, chemiluminescence
T8 peptide: Ac-WNSQKDILEDRRA-{cellulose membrane}
Protocol: as §1, §3

SEQ ID NO 34 = target: T9, SEQ ID NO 34 (human); test: polymorphic 61-73 peptide spots, chemiluminescence
T9 peptide: Ac-WNSQKDLLEQRRA-{cellulose membrane}
Protocol: as §1, §3

SEQ ID NO 27 = target: T10, SEQ ID NO 27 (human); test: polymorphic 61-73 peptide spots, chemiluminescence
T10 peptide: Ac-WNSQKDFLEQARA-{cellulose membrane}
Protocol: as §1, §3

SEQ ID NO 31 = target: T11, SEQ ID NO 31 (human); test: polymorphic 61-73 peptide spots, chemiluminescence
T11 peptide: Ac-WNSQKDILEDRRG-{cellulose membrane}
Protocol: as §1, §3

SEQ ID NO 32 = target: T12, SEQ ID NO 32 (human); test: polymorphic 61-73 peptide spots, chemiluminescence
T12 peptide: Ac-WNSQKDILEDKRA-{cellulose membrane}
Protocol: as §1, §3

SEQ ID NO 26 = target: T13, SEQ ID NO 26 (human); test: polymorphic 61-73 peptide spots, chemiluminescence
T13 peptide: Ac-WNSQKDFLEDERA-{cellulose membrane}
Protocol: as §1, §3

SEQ ID NO 29 = target: T14, SEQ ID NO 29 (human); test: polymorphic 61-73 peptide spots, chemiluminescence
T14 peptide: Ac-WNSQKDILEQKRG-{cellulose membrane}
Protocol: as §1, §3

SEQ ID NO 37 = target: T15, SEQ ID NO 37 (human); test: polymorphic 61-73 peptide spots, chemiluminescence
T15 peptide: Ac-WNSQKDLLEDRRA-{cellulose membrane}
Protocol: as §1, §3

SEQ ID NO 25 = target: T16, SEQ ID NO 25 (human); test: polymorphic 61-73 peptide spots, chemiluminescence
T16 peptide: Ac-WNSQKDFLERRRA-{cellulose membrane}
Protocol: as §1, §3

SEQ ID NO 35 = target: T17, SEQ ID NO 35 (human); test: polymorphic 61-73 peptide spots, chemiluminescence
T17 peptide: Ac-WNSQKDLLEQARA-{cellulose membrane}
Protocol: as §1, §3

[2] = target: T18, 13-mer peptide, amino acids 65 to 77 of the HLA-DR β chain (DRB1*15011) (human); test: SPOT 13-mer peptide array on cellulose membrane, chemiluminescence
T18 peptide: Ac-KDILEQARAAVDT-{cellulose membrane}
Protocol: as §1, §2

SEQ ID NO 40 = target: T19, SEQ ID NO 40 (human); test: alanine-substituted 61-73 peptide spots, chemiluminescence
T19 construct: The entry already carries the substitution
T19 peptide: Ac-WNSQKDALEQRRA-{cellulose membrane}
Protocol: as §1, §2
(§4) Further, 12 peptides (SEQ ID Nos: 40 to 51) in which each amino acid has been substituted with alanine ([…] if it is originally alanine) were subjected to Western blotting under similar conditions. In the analysis, LAS2000 and ImageGauge analyzing software (Fuji Photo Film) were used to represent the color intensity in each spot by numerical values.

SEQ ID NO 51 = target: T20, SEQ ID NO 51 (human); test: as above
T20 construct: The entry already carries the substitution
T20 peptide: Ac-WNSQKDLLEQRAA-{cellulose membrane}
Protocol: as §1, §2, §4

SEQ ID NO 43 = target: T21, SEQ ID NO 43 (human); test: as above
T21 construct: The entry already carries the substitution
T21 peptide: Ac-WNSQKDLLEQRRG-{cellulose membrane}
Protocol: as §1, §2, §4

SEQ ID NO 48 = target: T22, SEQ ID NO 48 (human); test: as above
T22 construct: The entry already carries the substitution
T22 peptide: Ac-WNSQADLLEQRRA-{cellulose membrane}
Protocol: as §1, §2, §4

SEQ ID NO 50 = target: T23, SEQ ID NO 50 (human); test: as above
T23 construct: The entry already carries the substitution
T23 peptide: Ac-WNSQKDLLAQRRA-{cellulose membrane}
Protocol: as §1, §2, §4

SEQ ID NO 47 = target: T24, SEQ ID NO 47 (human); test: as above
T24 construct: The entry already carries the substitution
T24 peptide: Ac-WNSAKDLLEQRRA-{cellulose membrane}
Protocol: as §1, §2, §4

SEQ ID NO 49 = target: T25, SEQ ID NO 49 (human); test: as above
T25 construct: The entry already carries the substitution
T25 peptide: Ac-WNSQKALLEQRRA-{cellulose membrane}
Protocol: as §1, §2, §4

SEQ ID NO 46 = target: T26, SEQ ID NO 46 (human); test: as above
T26 construct: The entry already carries the substitution
T26 peptide: Ac-WNAQKDLLEQRRA-{cellulose membrane}
Protocol: as §1, §2, §4

SEQ ID NO 44 = target: T27, SEQ ID NO 44 (human); test: as above
T27 construct: The entry already carries the substitution
T27 peptide: Ac-ANSQKDLLEQRRA-{cellulose membrane}
Protocol: as §1, §2, §4

SEQ ID NO 41 = target: T28, SEQ ID NO 41 (human); test: as above
T28 construct: The entry already carries the substitution
T28 peptide: Ac-WNSQKDLLEARRA-{cellulose membrane}
Protocol: as §1, §2, §4

SEQ ID NO 45 = target: T29, SEQ ID NO 45 (human); test: as above
T29 construct: The entry already carries the substitution
T29 peptide: Ac-WASQKDLLEQRRA-{cellulose membrane}
Protocol: as §1, §2, §4

SEQ ID NO 42 = target: T30, SEQ ID NO 42 (human); test: as above
T30 construct: The entry already carries the substitution
T30 peptide: Ac-WNSQKDLLEQARA-{cellulose membrane}
Protocol: as §1, §2, §4

binding result [1]: binds
B1: HD4 (antibody, IgG1, V domains shown)
VH: EVQLLESGGGLVQPGGSLRLSCAASGFTFSSYAMTWVRQAPGKGLEWVSGISGGGDSTYYADSVKGRFTISRDNSKNTLYLQMNSLRAEDTAVYYCARDHGSGSYYPYWFDYWGQGTLVTVSS
VL: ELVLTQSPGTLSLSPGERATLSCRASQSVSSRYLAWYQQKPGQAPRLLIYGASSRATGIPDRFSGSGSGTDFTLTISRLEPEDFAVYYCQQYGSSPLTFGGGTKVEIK
notes: also called antibody produced from the hybridoma HD4 (FERM BP-7771)

binding result (SEQ ID NO 24): binds
binding result (SEQ ID NO 33): binds
binding result (SEQ ID NO 36): binds
binding result (SEQ ID NO 38): binds
binding result (SEQ ID NO 28): binds
binding result (SEQ ID NO 39): binds
binding result (SEQ ID NO 30): binds
binding result (SEQ ID NO 34): binds
binding result (SEQ ID NO 27): binds
binding result (SEQ ID NO 31): binds
binding result (SEQ ID NO 32): binds
binding result (SEQ ID NO 26): binds
binding result (SEQ ID NO 29): binds
binding result (SEQ ID NO 37): binds
binding result (SEQ ID NO 25): binds
binding result (SEQ ID NO 35): binds
binding result [1]: binds
binding result [2]: binds
binding result (SEQ ID NO 40): binds
binding result (SEQ ID NO 51): no binding (tested: 1 µg/mL)
binding result (SEQ ID NO 43): binds
binding result (SEQ ID NO 48): no binding (tested: 1 µg/mL)
binding result (SEQ ID NO 50): no binding (tested: 1 µg/mL)
binding result (SEQ ID NO 47): binds
binding result (SEQ ID NO 49): no binding (tested: 1 µg/mL)
binding result (SEQ ID NO 46): binds
binding result (SEQ ID NO 44): binds
binding result (SEQ ID NO 41): binds
binding result (SEQ ID NO 45): binds
binding result (SEQ ID NO 42): binds
B2: HD8 (antibody, IgG2, V domains shown)
VH: QVQLQHSGPGLVKPSQTLSLTCAISGDSVSSNSASWNWIRQSPSRGLEWLGRTYYRSKWYNDYAVSVKSRIVINPDTSKNQFSLQLNSVTPEDTAVYYCARENFYGSETCHKKYYCYGMDVWGQGTTVTVSS
VL: AIQLTQSPSSLSASVGDRVTITCRASQGISSALAWYQQKPGKAPKLLIYDASSLESGVPSRFSGSGSGTDFTLTISSLQPEDFATYYCQQFNSFPLTFGGGTKVEIK
notes: also called antibody produced from the hybridoma HD8 (FERM BP-7773)

Source: US20040091974A1 (KIRIN BEER, published 2004)
